Where no end group is shown, it is not given here.
Experiments:
[1] = target: T1, Anti-CD28 Fab (SEQ ID NOs: 696, 697); experiment: phage binding ELISA; clonal phage on plate-captured anti-CD28 Fab pre-incubated with CD28 antigen (competitor)
T1 construct: In the phage ELISA the Fab was biotinylated and captured on neutravidin coated plates
T1 sequence (VH, as listed by the source, chain 1 of 2): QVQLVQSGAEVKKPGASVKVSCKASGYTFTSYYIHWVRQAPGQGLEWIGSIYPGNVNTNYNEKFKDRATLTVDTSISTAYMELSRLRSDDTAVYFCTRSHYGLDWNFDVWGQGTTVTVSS
T1 sequence (VL, as listed by the source, chain 2 of 2): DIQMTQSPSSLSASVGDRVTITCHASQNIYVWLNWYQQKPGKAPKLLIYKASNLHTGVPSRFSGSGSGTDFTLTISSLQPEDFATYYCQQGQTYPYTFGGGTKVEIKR
Protocol: (§1) Clonal phage were harvested as crude supematants and screened via standard ELISAs. […] Prior to the addition of clonal phage, wells were incubated with blocking buffer and CD28 antigen or blocking buffer alone. Without washing or aspirating, clonal phage supematants were then added to the wells and incubated for a short time. Wells were then washed followed by detection of bound phage using a horse radish conjugated anti-M13 antibody. Clonal phage of interest were then sent for sequence analysis.

[2] = target: T1, Anti-CD28 Fab (SEQ ID NOs: 696, 697); experiment: phage binding ELISA; clonal phage on plate-captured biotinylated anti-CD28 Fab
Protocol: (§2) Clonal phage were harvested as crude supematants and screened via standard ELISAs. […] Prior to the addition of clonal phage, wells were incubated with blocking buffer and CD28 antigen or blocking buffer alone. Without washing or aspirating, clonal phage supematants were then added to the wells and incubated for a short time. Wells were then washed followed by detection of bound phage using a horse radish conjugated anti-M13 antibody.

[3] = target: T2, Anti-CD28 Fab (SEQ ID NOs: 696, 697) (biotinylated (site not given)); experiment: phage binding ELISA on captured anti-CD28 Fab; competitor: CD28 antigen added to the wells before the phage
T2 sequence (VH, as listed by the source, chain 1 of 2): as the sequence (VH, as listed by the source, chain 1 of 2) above
T2 sequence (VL, as listed by the source, chain 2 of 2): as the sequence (VL, as listed by the source, chain 2 of 2) above

[4] = target: T2, Anti-CD28 Fab (SEQ ID NOs: 696, 697); experiment: phage binding ELISA; biotinylated anti-CD28 Fab on neutravidin plate, clonal phage detected with anti-M13-HRP;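 further: crude clonal phage supernatants added briefly to wells preincubated in blocking buffer with or without CD28 antigen, then washed before detection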
Protocol: as §1

[5] = target: Anti-CD28 Fab (SEQ ID NOs: 696, 697); experiment: phage binding ELISA; Fab-coated wells pre-incubated with CD28 antigen as competitor, anti-M13 HRP detection;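 further: crude clonal phage supernatants added without washing after the CD28 pre-incubation, with wells given blocking buffer only (no CD28) as the reference, bound phage read after washing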
Target sequence in this assay (VH, as listed by the source, chain 1 of 2): as the sequence (VH, as listed by the source, chain 1 of 2) above
Target sequence in this assay (VL, as listed by the source, chain 2 of 2): as the sequence (VL, as listed by the source, chain 2 of 2) above
Protocol: as §1

[6] = target: Anti-CD28 Fab (SEQ ID NOs: 696, 697); experiment: phage binding ELISA; biotinylated anti-CD28 Fab on neutravidin plate, clonal phage supernatant, anti-M13 HRP detection;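 further: wells pretreated with blocking buffer, either plus or minus CD28 antigen, then given crude phage supernatant briefly without washing in between, then washed before anti-M13 HRP readout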
Target sequence in this assay (VH, as listed by the source, chain 1 of 2): as the sequence (VH, as listed by the source, chain 1 of 2) above
Target sequence in this assay (VL, as listed by the source, chain 2 of 2): as the sequence (VL, as listed by the source, chain 2 of 2) above
Protocol: as §2

TCSAGATYVWPQCF [Phage-1403 (Peptide-92 library clone)]
Anti-CD28 Fab signal in the presence of CD28 [1]: 0.07 | Anti-CD28 Fab (SEQ ID NOs: 696, 697) signal [2]: 2.05

TCAAGAMWHWPVCL [Phage-1409 (Peptide-92 library clone)]
Anti-CD28 Fab signal in the presence of CD28 [1]: 0.09 | Anti-CD28 Fab (SEQ ID NOs: 696, 697) signal [2]: 2.03

TCSEGATYTWPWCF [Phage-1401]
Anti-CD28 Fab signal in the presence of CD28 [3]: 0.06 | Anti-CD28 Fab (SEQ ID NOs: 696, 697) signal [4]: 2.05

TCSAGASWAWPWCF [Phage-1408 (Peptide-92 library clone)]
Anti-CD28 Fab signal in the presence of CD28 [1]: 0.08 | Anti-CD28 Fab (SEQ ID NOs: 696, 697) signal [2]: 2.03

TCAAGASYAWPWCL [Phage-1407 (Peptide-92 library clone)]
Anti-CD28 Fab signal in the presence of CD28 [1]: 0.08 | Anti-CD28 Fab (SEQ ID NOs: 696, 697) signal [2]: 2.03

TCSAGATWTWPQCL [Phage-1391]
Anti-CD28 Fab signal in the presence of CD28 [3]: 0.08 | Anti-CD28 Fab (SEQ ID NOs: 696, 697) signal [4]: 2.14

TCAAGAMYTWPLCF [Phage-1390]
Anti-CD28 Fab signal in the presence of CD28 [3]: 0.09 | Anti-CD28 Fab (SEQ ID NOs: 696, 697) signal [4]: 2.14

WCKPGAPYKWPPCF [Phage-1389]
Anti-CD28 Fab signal in the presence of CD28 [3]: 0.07 | Anti-CD28 Fab (SEQ ID NOs: 696, 697) signal [4]: 2.14

TCAAGAHYSWPACF [Phage-1370 peptide (Peptide-92 library sequence, SEQ ID NO: 1666)]
Anti-CD28 Fab signal in the presence of CD28 [5]: 0.07 | Anti-CD28 Fab (SEQ ID NOs: 696, 697) signal [6]: 2.25

TCAAGATYPWPSCL [Phage-1371 peptide (Peptide-92 library sequence, SEQ ID NO: 1667)]
Anti-CD28 Fab signal in the presence of CD28 [5]: 0.06 | Anti-CD28 Fab (SEQ ID NOs: 696, 697) signal [6]: 2.25

MCAAGANYPWPQCL (cysteine pairing not given here; also: fused to phage pIII protein) [Phage-1367 peptide (Peptide-92 library sequence, SEQ ID NO: 1663)]
Anti-CD28 Fab signal in the presence of CD28 [5]: 0.08 | Anti-CD28 Fab (SEQ ID NOs: 696, 697) signal [6]: 2.28

TCAAGANYPWPYCL [Phage-1416 (Peptide-92 library clone)]
Anti-CD28 Fab signal in the presence of CD28 [1]: 0.14 | Anti-CD28 Fab (SEQ ID NOs: 696, 697) signal [2]: 1.99

MCSAGAMYSWPLCL [Phage-1365 peptide (Peptide-92 library sequence, SEQ ID NO: 1661)]
Anti-CD28 Fab signal in the presence of CD28 [5]: 0.08 | Anti-CD28 Fab (SEQ ID NOs: 696, 697) signal [6]: 2.29

TCAAGATYSWPMCF [Phage-1413 (Peptide-92 library clone)]
Anti-CD28 Fab signal in the presence of CD28 [1]: 0.07 | Anti-CD28 Fab (SEQ ID NOs: 696, 697) signal [2]: 2

QCAAGASYPWPMCL [Phage-1398]
Anti-CD28 Fab signal in the presence of CD28 [3]: 0.08 | Anti-CD28 Fab (SEQ ID NOs: 696, 697) signal [4]: 2.08

TCSAGFHYEWPRCL [Phage-1410 (Peptide-92 library clone)]
Anti-CD28 Fab signal in the presence of CD28 [1]: 0.05 | Anti-CD28 Fab (SEQ ID NOs: 696, 697) signal [2]: 2.02

LCEEFADYPWPMCL [Phage-1412 (Peptide-92 library clone)]
Anti-CD28 Fab signal in the presence of CD28 [1]: 0.06 | Anti-CD28 Fab (SEQ ID NOs: 696, 697) signal [2]: 2.01

TCKAGATYLWPFCL [Phage-1373 peptide (Peptide-92 library sequence, SEQ ID NO: 1669)]
Anti-CD28 Fab signal in the presence of CD28 [5]: 0.08 | Anti-CD28 Fab (SEQ ID NOs: 696, 697) signal [6]: 2.23

SCAAGAMWPWPVCV [Phage-1362 peptide (Peptide-92 library sequence, SEQ ID NO: 1658)]
Anti-CD28 Fab signal in the presence of CD28 [5]: 0.13 | Anti-CD28 Fab (SEQ ID NOs: 696, 697) signal [6]: 2.29

LCSAGAMYPWPTCL [Phage-1369 peptide (Peptide-92 library sequence, SEQ ID NO: 1665)]
Anti-CD28 Fab signal in the presence of CD28 [5]: 0.07 | Anti-CD28 Fab (SEQ ID NOs: 696, 697) signal [6]: 2.25

TCSAGATWSWPMCL [Phage-1368 peptide (Peptide-92 library sequence, SEQ ID NO: 1664)]
Anti-CD28 Fab signal in the presence of CD28 [5]: 0.09 | Anti-CD28 Fab (SEQ ID NOs: 696, 697) signal [6]: 2.26

Source: US20260242478A1 (published 2026)
